Literature values, collected in article PMC5132258.

Target: His89 (UniProt position 89, VLYCVHQRIDV)
Settings: not stated (folded wild-type matrix protein implied; myristoylation state not given)

## HIV-1 matrix protein p17 (MA), N-terminal domain of the Gag polyprotein (Human immunodeficiency virus type 1)
  pKa: 6.5
